Biological target: T1, human CD28 on peripheral blood CD3+ T lymphocytes (human, UniProt P10747 19-220)
T1 construct: whole, on cells; Target of the receptor occupancy flow cytometry assay on blood T cells of study subjects; also called CD28 receptor
Assay: Kd recalculated in the PK/target engagement model from receptor occupancy observed by flow cytometry in humans (cohort A); not a direct in vitro measurement

Kd: ~0.3 nM
B1: FR104, humanized pegylated monovalent anti-CD28 Fab' antibody fragment (Fab, V domains shown)
VH: QVQLQQSGAELKKPGASVKVSCKASGYTFTEYIIHWIKLRSGQGLEWIGWFYPGSNDIQYNAQFKGKATLTADKSSSTVYMELTGLTPEDSAVYFCARRDDFSGYDALPYWGQGTLVTVSA
VL: DIQMTQSPSSLSASVGDRVTITCKTNENIYSNLAWYQQKDGKSPQLLIYAATHLVEGVPSRFSGSGSGTQYSLTISSLQPEDFGNYYCQHFWGTPCTFGGGTKLEIKR
modifications: pegylated at its C-terminus: bi-branched 2x20 kDa PEG linked to the C-terminal cysteine via a maleimide ring
notes: also called FR104-PEG; anti-CD28.3 Fab

— patent publication US20250051446A1 (OSE IMMUNOTHERAPEUTICS, published 2025)
